Test results published in patent publication US7740850B2, “PDGFRβ-specific antibodies” (ImClone, LLC, priority 2007, dated 2010).

What was measured:
[1] = system: Caki-1 kidney carcinoma xenograft; assay: Subcutaneous tumor xenograft model; type: in vivo, mouse
Protocol: Six xenograft models, SK-OV-3, OV-CAR-8, BxPC-3, OV-CAR-5, Caki-1 and NCI-H460 (A to F, respectively) were used to examine the effects of 1B3 on xenograft tumors in athymic nude mice. Mice with established tumors (˜250-300 mm^3) were randomly grouped and treated with 1B3, normal human IgG, or saline by intraperitoneal injection twice weekly (except for BxPC-3 model where the mice were treated three times a week) at the dose indicated. Tumor volumes were measured twice a week and are presented as mean±SEM. *1 indicates the loss of one mouse due to severe illness. 1B3 binds to mouse, but not human, PDGFRβ. Accordingly, the observed responses to treatment result from inhibition of stimulation of host cells.
Antitumor activity of anti-mPDGFRβ antibody in tumor xenograft models. Six human xenograft tumor models, including three ovarian carcinoma (SK-OV-3, OV-CAR-5 and OV-CAR-8), one pancreatic carcinoma (BxPC3), one lung carcinoma (NCI-H460), and one kidney carcinoma (Caki-1), were used to assess the antitumor activity of 1B3 in vivo. […] Tumor sizes and mouse body weight were measured twice a week. Tumor volume was calculated using the formula: π/6×(length×width^2), where length=longest diameter and width=diameter perpendicular to length. The ratio of average tumor volume in the treatment group versus that in the control group (T/C %) was calculated. […]

[2] = system: NCI-H460 cells; assay: PDGF-BB-stimulated cell migration, two-chamber technique; type: cell-based, human; details: antibody 30 μg/ml, PDGF-BB 100 ng/ml, 4 hours
Protocol: (§1) 2C5 inhibits PDGF-BB-stimulated cell migration in a cell-based migration assay. Two-chamber technique was used to determine the inhibitory ability of 2C5 in cell migration with NCI-H460, OVCAR8, WS-1 and U-118 cell lines. Collagen (100 μg/ml) was added to the up chamber (100 μl) and the lower chamber (150 μl) and incubated at 37° C. for 1 hour. After washing the chambers twice with PBS, 100 μl of starved cells (estimated 0.5-10×10^6/ml in serum-free medium) were added to the up chamber and 150 μl of serum-free medium was added to the lower chamber and then incubated at 37° C. for 4 hours. […] In 2C5 wells, 2C5 were added into the up chamber at a final concentration of 30 μg/ml. Non-migrated cells in the up chamber were scraped from the membrane. After washing three times with PBS, migrated cells on the membrane of the lower chamber side were fixed with 4% formalin and stained with Hoechst (4 μg/ml). The results were captured and cells were counted under fluorescence microscopy.

[3] = system: OVCAR8 cells; assay: as above; type: cell-based, human; details: antibody 30 μg/ml, PDGF-BB 100 ng/ml, 4 hours
Protocol: as §1

[4] = system: PDGFRβ; assay: Epitope mapping, binding domains; details: chimeric and shorter PDGFRβ constructs
Protocol: (§2) 2C5 binds to domain 1 (D1) and domain 2 (D2) of PDGFRβ. Various chimeric constructs of PDGFRβ and PDGFRα were first made by domain swapping, starting from N-terminus to C-terminus with PDGFRβ domain(s) replacing PDGFRα domain(s). The PDGFRβ/α chimera were tested for the ability of 2C5 binding. Shorter versions of PDGFRβ, including D1D2, D2D3 and D1D2D3, were then made to confirm the 2C5 binding domains on PDGFRβ.

[5] = molecular target: T1, β1-2 (Homo sapiens, UniProt P09619); assay: Epitope mapping, shorter version of PDGFRβ (D1D2); type: binding; details: ✓ / X, key not given
T1 construct: Shorter versions of PDGFRβ, including D1D2, D2D3 and D1D2D3, were then made; made in house
Protocol: as §2

T1 sequence (P09619 33-210): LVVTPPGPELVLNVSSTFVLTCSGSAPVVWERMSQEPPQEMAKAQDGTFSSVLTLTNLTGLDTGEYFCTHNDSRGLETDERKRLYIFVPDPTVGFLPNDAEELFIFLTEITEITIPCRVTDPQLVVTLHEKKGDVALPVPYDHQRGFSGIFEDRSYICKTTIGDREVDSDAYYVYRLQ

| Molecule | antitumor activity ([1]; Caki-1, 40 mg/kg three times per week or 60 mg/kg twice weekly) | Tumor Volume T/C % ([1]; Caki-1 xenograft, monotherapy) [%] | inhibition of PDGF-BB-stimulated cell migration [2] | inhibition of PDGF-BB-stimulated cell migration [3] | binding domains on PDGFRβ [4] | binding to β1-2 [5] |
| --- | --- | --- | --- | --- | --- | --- |
| 1B3: human anti-mouse PDGFRβ antibody from Fab phage display library, human κ/γ1 constant regions; SEQ ID NOS in Table 1 (antibody, listed as Homo sapiens, V domains shown, human kappa/gamma1 constant regions) VH: QVQLQESGGGLVKPGGSLRLSCAASGFTFSSYSMNWVRQAPGKGLEWVSSISSSSSYIYYADSVKGRFTISRDNSKNTLYLQMNSLRAEDTAVYYCAKGGRPLLVFDFWGQGTLVTVS VL: EIVMTQSPGTLSLSPGERATLSCRASQSVSSSYLAWYQQKPGQAPRLLIYDASKRATGIPARFSGSGSGTDFTLTISTLESEDSAVYYCQQRGYWPPITFGQGTRLEIKR | failed to show any antitumor activity | 65 | – | – | – | – |
| 2C5: PDGFRβ-specific human antibody binding both human and murine PDGFRβ; SEQ ID NOS in Table 1 (antibody, listed as Homo sapiens, V domains shown) VH: QVQLVQSGAEVKKPGSSVKVSCKASGGTFSSYAISWVRQAPGQGLEWMGRIIPILGIANYAQKFQGRVTITADKSTSTAYMELSSLRSEDTAVYYCARDMGSRNYYYFYWGQGTLVTVSS VL: EIVLTQSPATLSLSPGERATLSCRASQSVGRYLAWYQQKPGQAPRLLIYGASNRATGIPARFSGSGSGTDFTLTISSLEPEDFAVYYCQQRSNWPLTFGGGTKVEIK | – | – | inhibited PDGF-BB-stimulated cell migration completely | inhibited PDGF-BB-stimulated cell migration completely | binds to PDGFRβ via both D1 and D2 of the receptor | ✓ |
